Measurements taken from the DeepSol protein solubility set.

Experiment: soluble on expression in E. coli; label from the status in PepcDB or PDB records
With “MTSKTNMTSNKFAYDFFPWSNDTNSSQQIKNIKPPPKRSNRPTKRTTFTSEQVTLLELEFAKNEYICKDRRGELAQTIELTECQVKTWFQNRRTKKRSSELKFGTACSENKTSTKWYYDSKLLFCYPYKYLGCGEGSNSFESNENCLESCKPADQFSCGGNTGPDGVCFAHGDQGCKKGTVCVMGGMVGFCCDKKIQDEWNKENSPKCLKGQVVQFKQWFGMTPLIGRSCSHNFCPEKSTCVQGKWTAYCCQ” the “soluble on expression in E. coli” value was “soluble”.
With “LPKPGVYYFPWEVSDGHVPEGSTLRTFGRLYLYDMARSLMTLAAPQKPDQCQLLVCTNLVEPFEAHVNFLYMVLGDLERMEGGAFVVRARLLTCVEGMDLSLLEKAILEQRRHLQKRQQPIGDASTLQTPTPAPQSIPSD” the “soluble on expression in E. coli” value was “not soluble”.
With “MAHHHHHHMADSYENDEDVLQMIQQIKKITKESKRKFENEIDYLVEDTKTNLLTHVDDEKNCIKKEAEEKLNSYRENLIKYEKGINEKRRHYLKLKAELATVVNNYKKRMKVGPACTCVERFTCACGEVYTRVEVYTLVKLHTLVKPPTRLLSPQDFNQETENFKQTYEREKKELEDLEDREWSELNTHCVELLSKTKSNICATKNETNKKLRKVLNSIM” the “soluble on expression in E. coli” value was “not soluble”.
In the case of “MNKKSSSMVNMPAPREPINQKIDTNNALVLNHNAIYEQRLAEITQSNTCDKAIVTVNPYGTAPLSLYLGVWMDEAAALEINVVDSEATTEEVRYQYDVHPGANLIPVCGMVSAVNNQITLRLASQIVGQYTVMTDALPPTDSANVSLGFPIISVSCPAQQASLMEEGLYFSTYFDRYNLAFDHNGIVRWYVSQEIPSYNFVRMDNGHFLATSQGINHCLNMYEFDIMGRVYTVYLLDNEFHHSILPIENNLAIAPSEYSNGRPDGYSTGKDGVSIINLSTGLEVAYYDMLYVMDYSRSPRPSGSAPGQDVSMDDWLHINQSYINEPNNLLICSGRHQSAIFGVNVDSGELRFIMANHEDWSDEFKQYLLTPVDDDGVPLYDLTSPGGIDAADKNFWTWGQHNIVEIPNDEPGILEFMVFDNGNYRSREDAKSLLPLDNFSRVVQFKINLNTMTVTRPYEYGKTEVGNRGYSSFVSAKHLLTNGHLVIHFGATTVDEFEHTITAQPGSSDLVDPDEGQQALGRLVLQEINKETKEVLFEAMVTSGYFKNEETNGTNYRYDISAFRVYKMPLFA”, the “soluble on expression in E. coli” value is reported as “not soluble”.
In the case of “MGHHHHHHSHMLAWHVLMGNQVIWKSRDVDLVQSAFEVLRTMLPVGCVRIIPYSSQYEEAYRCNFLGLSPHVQIPPHVLSSEFAVIVEVHAAARSTLHPVGCEDDQSLSKYEFVVTSGSPVAADRVGPTILNKIEAALTNQNLSVDVVDQCLVCLKEEWMNKVKVLFKFTKVDSRPKEDTQKLLSILGASEEDNVKLLKFWMTGLSKTYKSHLMSTVRSPTASESRN”, the “soluble on expression in E. coli” value is reported as “not soluble”.
With “MELFKDIKNLGKLVRLERIFNRESEKTVIVPMDHGVSNGPIKGLIDIRKTVNDVAEGGANAVLLHKGIVRHGHRGYGKDVGLIIHLSGGTAISPNPLKKVIVTTVEEAIRMGADAVSIHVNVGSDEDWEAYRDLGMIAETCEYWGMPLIAMMYPRGKHIQNERDPELVAHAARLGAELGADIVKTSYTGDIDSFRDVVKGCPAPVVVAGGPKTNTDEEFLQMIKDAMEAGAAGVAVGRNIFQHDDVVGITRAVCKIVHENADVEEALKEIRKK” the “soluble on expression in E. coli” value was “soluble”.
For “MAQSFLLMGALIQHHLKGEKADLLTPEKLLEAANKQGTVPSRVRYQWMEDEETGRLKAVGYHTSMESGRDQVRVRLLKHDFPNNRYEFWEEGATGPTILWTPDNPGIELPTDTAHGEQPVIPSAIPGLEIPEMDDVSILATPMPDEKDFRDYILVFPENAFPPIYVYLSKKIDTPIWLEHHHHHH”, the “soluble on expression in E. coli” value was “soluble”.
For “MKSSMAMIKHKKELVEYARHLKLPNLAEHVGVILHEAQEKQLTYSEFLANCLAREIQGRERKSYLTRLKLSGLPAKYDLDLYDYDRAEGMDNRRLRELRELVWVNQAYNLLLVGPSGTGKTFIAAGLVYEAVKAGYEAYLMTLEELLTCLKTKEVSAHAMKTYKRIMKARLLAIDDATLFPLKREEAVLLFKLVNDFQERTSLIITANKALTRWLETLEDEAVTAALLDRLLYCCEIIRLGGTSYRMQNRKTIFSNQNTDIGTLEHHHHHH”, the “soluble on expression in E. coli” value was “not soluble”.
With “MSLKQIIDNVEVYILTGPKEKRPHWVSHFIVPTANELLVKIKTKQGLEGFGIATNYSDINPVIEVFKTDFLDNFIGMDATCPEVIYEKIFNLTSQKLSFEKKWGKEPLIRISAAIDIACWDLIGKASGFPLYKLFGGYRDKVPCYVTCAYYRDGKDNKELKDEIEMLVGQGHQGFKGKVGGLSLREDLERMNIIRDVIGDEKSLMIDVNRAWDLKTASEAVNLLKPINPFWLEEPVRWADDRRELKLLSQKTEIPISGGESELTIYGCRSMLEEQAIQILQFDCTMFGGFTAGKKLSALCEVNHVDIAPHHDCFIHAHIVAGSPSGLIVESFTDPERDPLQAELFTNPPKIENGWLYLNEEPGLGLNLSNDALAKFGNKILEGHHHHHH” the “soluble on expression in E. coli” value was “soluble”.
In the case of “MQREQTKVFKRVAGIKDKAAIKTLISAAYRQIFERDIAPYIAQNEFSGWESKLGNGEITVKEFIEGLGYSNLYLKEFYTPYPNTKVIELGTKHFLGRAPIDQAEIRKYNQILATQGIRAFINALVNSQEYNEVFGEDTVPYRRFPTLPALEHHHHHH”, the “soluble on expression in E. coli” value is reported as “soluble”.
In the case of “MTTKYAALLRGINVGGSRKVPMADLRALLTSLGHDAVRTHLQSGQAVFAAAHGDEDSLAAELAEAIGERFGFPVDVIVRDHAYLRSVVEACPFPAAELEARQLHVTYFSAPVEADRFAAIDAPAFRPEEFRLGDRALYLYAPDGLGRSKLAEALARPRVNKGLVATSRNWNTVTKLVELTGP”, the “soluble on expression in E. coli” value is reported as “not soluble”.
With “MSYNSIRLPQDLPIYYKNFFPVKPFTKWLRYGQNNGDYFNRREFAFILADDVHIRYRSYNDEHAFFKALSSTNPEKLDIGAVYNHEPINNKRHTDYQAVERELVFDIDLTDYDPVRNCCKDATVCPKCWKFMVLAVKILDFQLEDMFDFKARMWVFSGRRGVHCWVGDKKARMLNNYQRSAIATRLNLFKKNGQCEVTEGRAKMTKVPPIVRDAFNVALKDGVFEKMIYDQGWLDKEDFITEYKFMSEVGRDDLRSLSETYKTPQERWNMIRGLFDDDYRKSLSPKDGLLDFKMQGRDRNYLLYFVLQRCYPRLDVNVSTGTNHLLKSPFCIHPKTGNVAVPLNVGKIEEFDVSKCPRIDHVVEELSSLLAERGNDENEDSKNRKFLAYKHGALAPYVENFEKFVSACIS” the “soluble on expression in E. coli” value was “not soluble”.
In the case of “MMNADCKTAFGAIEESLLWSAEQRAASLAATLACRPDEGPVWIFGYGSLMWNPALEFTESCTGTLVGWHRAFCLRLTAGRGTAHQPGRMLALKEGGRTTGVAYRLPEETLEQELTLLWKREMITGCYLPTWCQLDLDDGRTVNAIVFIMDPRHPEYESDTRAQVIAPLIAAASGPLGTNAQYLFSLEQELIKLGMQDDGLNDLLVSVKKLLAENYPDGVLRPGFALEHHHHHH”, the “soluble on expression in E. coli” value is reported as “soluble”.
For “MNQTLETGTTTVGITLKDAVIMATERRVTMENFIMHKNGKKLFQIDTYTGMTIAGLVGDAQVLVRYMKAELELYRLQRRVNMPIEAVATLLSNMLNQVKYMPYMVQLLVGGIDTAPHVFSIDAAGGSVEDIYASTGSGSPFVYGVLESQYSEKMTVDEGVDLVIRAISAAKQRDSASGGMIDVAVITRKDGYVQLPTDQIESRIRKLGLILHHHHHH”, the “soluble on expression in E. coli” value was “soluble”.
With “MSLNPNYLDFEQPIADLEAKIQELHTASMGPSINVDTEVRALENKLRLRTAQIFRNLSAWQISQLARHPRRPYTLDYISVVCDEFQELAGDRALADDKAIVGGLARIGHRPVMLIGHQKGRDNKERLMRNFGMPKPEGYRKALRLMKLAERFGLPLLTFIDTMGAWPGIDAEERNQSEAIATNLIEMAELKIPVICTVIGEGGSGGALAIGIGDRTLMLEYSTYSVITPEGCASILWKDAAKASDAAEQLNLTARRLKEFGLIDKVIREPIGGAHRNPQQMANRLKAVLLNELEALDKVPLVTLLNQRHKRLRTYGAYENHEGHHHHHH” the “soluble on expression in E. coli” value was “not soluble”.
For “MSLNYSVLPPEINSLRMFTGAGSAPMLAASVAWDRLAAELAVAASSFGSVTSGLAGQSWQGAAAAAMAAAAAPYAGWLAAAAARAAGASAQAKAVASAFEAARAATVHPMLVAANRNAFVQLVLSNLFGQNAPAIAAAEAMYEQMWAADVAAMVGYHGGASAAAAQLSSWSIGLQQALPEGHHHHHH”, the “soluble on expression in E. coli” value was “soluble”.
For “GPGSMQAARLPTRIATGDGEDAPQTPPVHAPATPAATDEQETDQPQQAVGEATTPADRAGFQPPSAEALATRQSRNSAGAEKMGGGQRLRDHTTAQRRLMQDYRTFQKNMAEGTSSNITALPVDGDFFHWHAVISGPCDTPWEGGLFKLDLIFGDDYPFSPPKVRFRTKDVFHPNVYVDGNICMDTLKSSWQSSLNLEALLISIQSLLSDPNPLSAANGAAARLLTENRSAYDEKIRALVEESLEQSFSMDDDSDDAEVDEEAV”, the “soluble on expression in E. coli” value was “soluble”.
With “MLPFLAASPGLGDVRAPAIWLGLVSQPSRTPIITKNSKTKRKTDGSTTRQSSSLGPRSSPLRSAGGQLRKTTRSELKKSHFHLGSWNAQSLLGPRLASGVEYLKNSTCHVVNLQETRFFSMASIDQPEFQLLFSPKTNSKDLGLGFFVKKCQDLEVINVSWIGVGIASLELEFRKVKIMVLNVYAPVCKSRSENDAKRFFERLRAEYIQLRKSFKGPIVLGGDFNAATSCSTNDELAPWICGNVFGNSNNHGDFFFNFLASTRLFQLNSRFRKRLASRWTFAGKKGVGRTEIDFFISNRIDLVEDVSTFPNLHNLSDHRLIRSRWVISVKSERDHAFKSRRPPSTGKERDWTLYEDAIKDLRKHATLGSYDSFVKTLRQGLVPLPAHKPHKFSQRTIMILQERRQVLESSVPDIAKLRKLSQEARKSITEDLTQKYDSILEACRKKRSSKILNKSIPAEIPLQYLEWPDGSLTANRIEIRKIVESHFKTLYEAPTSSPSHPRNPNSNPPNSDPVPAILKCEVRLEIRKLKTKSAPGLDNVDAAMLKNGGDTVVDSVTALFNDILHHNKVPDLWKIADVKLIPKKAKATKIKDFRPISLLPILSKMFSSILTRRLTPTLESYLDESQTKVFRKGRCCADNIQSLTMLIEKCNEFQLPLLLLFIDYQTAFDKISHSSVVSSLERAGADPAMRKMIQELMEGGQAEITVHDKKLKVNLCTGIRQGDSASPALFSAALQAILTDCDNELAGVGISVEGRHIRRLEFADDVVLICSTPEEVQERLEILDRISSNYGLKINQSKTVLLKNKFCRSQDILFNGSPIIPVPGCRYLGRWIDISGSIDEEISRRIRAGWGALVGIKEVLRIMPNKERIILFKQNVLPALLYASETWTCNAGSTLRLKRTVTGLIDAAEIRGWNFNLERYLLAKQSRFAGHILRRDPF” the “soluble on expression in E. coli” value was “not soluble”.
In the case of “MDDNNSEFKHLFPIAVEVTEGKTYVWCGCGKSKTQPFCDKENCGDKAVSFIAELTEDVYFCNCKQTKNPPFCDGSHAKILLEVVKKKAKQMNRKGSLKLEHHHHHH”, the “soluble on expression in E. coli” value is reported as “not soluble”.
With “MGHHHHHHSHMYAAGLGMLEPTKEPLKPLSAAEKIASIGQTATMSPDMNTCTSDQFQESLPPVQFDWSSSGLTNPLDGVDPELYELTTSKLEISTSSLKVTDAFARLMSTVEKTSTSTSRKPKREEHLSEEAIKVIAGLPDLTFMHAKVLMFPATLTPSTSSQEKADG” the “soluble on expression in E. coli” value was “not soluble”.
In the case of “MAHHHHHHMLGSGKSSGVVNEASNLKANQNLTSAIEEMNTKEYIRNRDLNDVVPTHRRQVEAMMNKGNNNNGKVGLPAYDPAAEKEKERKERGQTHIEDRNDSDDDGELEELRKRRMAQMQQHHAKVAEWRQKQHGQYREISQDEFFSIVVREKGGSDDVCVHFYHKDFETCRVMDSRLLELSRMMLSVKFVKIDAEKSPFLVERLHIKTLPCCVLFHNDVAVDRIYGFEGCIGEDGLLDKELLGERILRAVNCKQEECE”, the “soluble on expression in E. coli” value is reported as “soluble”.
